According to paper PMC7218058 (2020):
Each block holds one binder with its values, some of them ahead of it.

How the values were obtained:
[1] = target: IgG2 allotypes (anti-RhD); assay: SPR
[2] = target: IgG4 allotypes (anti-RhD); assay: SPR

Kd [1]: > 1000 nM
B1: human FcγRIa (his tag) (receptor)
chain: QVDTTKAVITLQPPWVSVFQEETVTLHCEVLHLPGSSSTQWFLNGTATQTSTPSYRITSASVNDSGEYRCQRGLSGRSDPIQLEIHRGWLLLQVSSRVFTEGEPLALRCHAWKDKLVYNVLYYRNGKAFKFFHWNSNLTILKTNISHNGTYHCSGMGKHRYTSAGISVTVKELFPAPVLNASVTSPLLEGNLVTLSCETKLLLQRPGLQLYFSFYMGSKTLRGRNTSSEYQILTARREDSGLYWCEAATEDGNVLKRSPELELQVLGLQLPTPVWFH

Kd [2]: > 1000 nM
B2: human FcγRIIa 131His, biotinylated (receptor)
chain: QAAAPPKAVLKLEPPWINVLQEDSVTLTCQGARSPESDSIQWFHNGNLIPTHTQPSYRFKANNNDSGEYTCQTGQTSLSDPVHLTVLSEWLVLQTPHLEFQEGETIMLRCHSWKDKPLVKVTFFQNGKSQKFSHLDPTFSIPQANHSHSGDYHCTGNIGYTLFSSKPVTITVQVPSMGSSSPMG
modifications: biotin
